According to publication PMC8584381, “A Small Step, a Giant Leap: Somatic Hypermutation of a Single Amino Acid Leads to Anti-La Autoreactivity” (International Journal of Molecular Sciences, 2021):
Positions count from the first letter of the chain named. Names and notes keep the numbering of the source. Blank lines part the entries; values can stand above or below the binder they belong to.

Legend:
[1] = target: T1, native human La protein of HeLa total cell extract (Homo sapiens (HeLa, endogenous), UniProt P05455); test: co-IP; HeLa total extract (50 nM Tris/HCl pH 8.0, 150 mM NaCl, 1% IGEPAL CA-630) mixed with 2 µg purified ab and Protein G MicroBeads, on ice 30 min; La detected by blot with anti-La mab 5B9; conditions: one partner purified
T1 construct: La protein (La/SS-B), human, endogenous in HeLa cells; also called native La protein; source: endogenous, HeLa total extract
T1 sequence (P05455 whole entry): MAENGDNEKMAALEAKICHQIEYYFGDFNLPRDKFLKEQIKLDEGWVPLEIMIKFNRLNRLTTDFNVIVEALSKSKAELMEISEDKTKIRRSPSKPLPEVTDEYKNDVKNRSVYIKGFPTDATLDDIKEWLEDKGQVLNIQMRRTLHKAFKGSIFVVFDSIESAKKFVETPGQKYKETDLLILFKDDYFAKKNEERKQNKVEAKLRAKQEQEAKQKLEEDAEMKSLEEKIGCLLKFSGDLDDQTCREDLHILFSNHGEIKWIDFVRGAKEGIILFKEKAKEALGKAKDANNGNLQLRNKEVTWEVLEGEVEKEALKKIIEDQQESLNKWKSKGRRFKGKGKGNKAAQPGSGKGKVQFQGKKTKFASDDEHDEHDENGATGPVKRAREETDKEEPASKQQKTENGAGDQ

[2] = target: T2, recombinant human La protein (Homo sapiens, UniProt P05455); test: far-Western, overlay or dot blot; SDS-PAGE/immunoblotting under denaturing conditions: 2 µg rh-La or TCM-La on nitrocellulose, IgG4 ab constructs at 1.5 µg/mL in Blocking Solution, detected with anti-human IgG4-HRP; conditions: both partners purified
T2 construct: La protein (La/SS-B, Sjögren's syndrome associated antigen B), human; It calls wildtype La an undefined mixture of oxidized and reduced protein; also called rh-La; wildtype La protein; source: bacteria lysates, purified (Ni-NTA)
T2 sequence (P05455 whole entry): as above

binding result [1]: binds | binding result [2]: binds
B1: murine 312B-IgG4 (scFv of the mature 312B VH and VL fused to human IgG4 Fc) (Fc fusion, mouse)
VH: QVKLQESGAELMKPGSSVKFSCKAAGYTFTDYWIEWLKQRPGHGLEWIGEILPGSVSIKYNEKFKGKATFTADTSSNTAYMQLSSLTSEDSAVYYCARSRSIYDGYFYYWGQGTTLTVSS
VL: DIVMTQSTASLSASVGETVTITCRASENIYTYLAWYQQKQGKSPQLLVYNAKTLAEGVPSRFSGSGSGTQFSLRINSLQPEDFGSYYCQHHYGTPYTFGGGTKLEIK
notes: flexible linker of three G4S motifs; VH-VL orientation; N-terminal murine Ig kappa leader for secretion; also called mature ab; source: permanent 3T3 production cell line, purified from cell culture supernatant (protein A); not shown: Fc (human IgG4, CH2 and CH3), C-terminal, kept

binding result [1]: binds | binding result [2]: binds
B2: mutated germline 312B-IgG4 with an aspartate to tyrosine mutation in the CDR3 region of the VH domain (Fc fusion, mouse)
VH: QVQLQQSGAELMKPGASVKLSCKATGYTFTGYWIEWVKQRPGHGLEWIGEILPGSGSTNYNEKFKGKATFTADTSSNTAYMQLSSLTTEDSAIYYCARSRSIYDGYFYYWGQGTTLTVSS
VL: B1 VL with V3Q, T8P, T31S, R74K
notes: as the germline VH of m6 with the aspartate in CDR3 replaced by tyrosine; flexible linker of three G4S motifs; as the germline VL of m6; VH-VL orientation; N-terminal murine Ig kappa leader for secretion; also called gl312B-D > Y; source: permanent 3T3 production cell line, purified from cell culture supernatant (protein A); not shown: Fc (human IgG4, CH2 and CH3), C-terminal, kept
